Here are results for one molecule from patent US20220112249A1 (OXFORD UNIVERSITY INNOVATION, published 2022).

For this test, the target named is T1, fHbp V1.1 with PorA VR2 P1.16 loop in position 5 (P5) (Neisseria meningitidis, UniProt E6MV22 20-274).
T1 sequence: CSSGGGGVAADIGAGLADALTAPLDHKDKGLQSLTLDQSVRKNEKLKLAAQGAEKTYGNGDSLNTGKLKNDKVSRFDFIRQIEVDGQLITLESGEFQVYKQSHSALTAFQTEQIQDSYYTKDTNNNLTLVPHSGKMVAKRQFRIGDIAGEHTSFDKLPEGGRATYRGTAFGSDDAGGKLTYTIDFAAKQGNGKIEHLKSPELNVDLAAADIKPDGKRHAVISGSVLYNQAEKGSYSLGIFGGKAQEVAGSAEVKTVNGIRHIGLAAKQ
In words: SPR (BIAcore), fHbp:PorA coupled to the chip, CFH (fH67) flowed over.

B1: Complement Factor H (CFH) domains 6 and 7 (other)
chain: TLKPCDYPDIKHGGLYHENMRRPYFPVAVGKYYSYYCDEHFETPSGSYWDHIHCTQDGWSPAVPCLRKCYFPYLENGYNQNYGRKFVQGKSIDVACHPGYALPKAQTTVTCMENGWSPTPRCI
notes: domain: fH67 (CFH domains 6-7); also called fH67
As to B1, the binding result is on record as “no binding (tested: 0.5-32 nM)”.
